Test results taken from patent US20050233963A1.

Target: hsc70 (constitutively expressed form of hsp70) (UniProt P11142)
Assay: cell-based or functional assay

hsc70 (constitutively expressed form of hsp70), sequence (P11142 whole entry): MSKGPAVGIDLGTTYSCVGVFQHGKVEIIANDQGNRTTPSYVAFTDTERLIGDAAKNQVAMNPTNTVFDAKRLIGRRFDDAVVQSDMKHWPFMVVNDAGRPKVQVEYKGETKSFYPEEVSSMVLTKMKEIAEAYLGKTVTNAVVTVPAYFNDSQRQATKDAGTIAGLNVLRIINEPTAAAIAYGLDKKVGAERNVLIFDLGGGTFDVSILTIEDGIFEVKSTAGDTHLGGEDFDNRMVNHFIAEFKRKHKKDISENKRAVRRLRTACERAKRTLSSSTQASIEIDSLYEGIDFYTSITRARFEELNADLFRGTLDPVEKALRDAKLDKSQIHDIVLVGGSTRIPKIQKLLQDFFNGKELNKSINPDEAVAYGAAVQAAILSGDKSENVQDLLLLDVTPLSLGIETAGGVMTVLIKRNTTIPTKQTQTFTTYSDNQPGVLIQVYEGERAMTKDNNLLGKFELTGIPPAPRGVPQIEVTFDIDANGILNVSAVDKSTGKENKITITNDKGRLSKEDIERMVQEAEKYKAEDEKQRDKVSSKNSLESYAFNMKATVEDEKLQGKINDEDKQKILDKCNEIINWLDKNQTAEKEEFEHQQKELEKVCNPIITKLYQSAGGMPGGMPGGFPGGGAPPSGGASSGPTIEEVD

“His-UBP (histidine tagged-UBP) (from UniProt O43765 1-313)” was tested, and the decrease in hs70-dependent refolding of luciferase was 30%.
